Experimental data taken from the NTF2 design screens of Basanta et al. (2020).

Test: protease stability score; higher = more stable; yeast display proteolysis, trypsin and chymotrypsin;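 also: relative to predicted unfolded state with 0 unfolded-like and 1 meaning tenfold more protease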

Sequence | protease stability score
DDIKEETDHLVDLLMEDIITGNERRLSHLADPNVRFTVGDWHSHGRKEMVEALRFTLDRADHVEYQPHRIENQGDKATAVIRVKLEYNGRTEEFRLIFTMEKIDGKWIVHKIFYR | 0.976
DDIKHEILRLMQLAFHYWETGDWEHFHHLADPHVRIDLDFNGKRLDLHGRDELQRVLEEELKRIDHFELHVTSLTDQGNKAELHGHRHIHQGDKRIDVRVINILIVVDGRIKTYSVHIR | 0.909
DDIREDLLRIIKLFIDYLITGDWKWIEKLADPHVRVEIDVNGKEIERHGMDQLREHLKHLWDRYDHLEFRIDDFKAIGEYSTLNGTLIVVVDGQKKSVEVRVVIVIINGKIDEVRHEQN | -0.239
DDIRKWMEHVFRDFNRSLKTGDERRSLELLDPHARIDINGVELIGREMFRKELHEMRIHVDDFDIESVDIQGDKVHLRTRVRVTIIVDGVKIHEERELEIHLHKFDGRWYIKEIRVR | 1.46
DDKDEHSYRVAEDVVEAWLTGDWRWLMDMFDPHVRMDIDIDGVDIHLHGRHELARYILEEHQKYKNITVHIEHIRVQGDFIEINTSVRIDGQRHDRRLIIRIINGKIEEHQIHVR | 1.01
DDKDEILLKLAKIVFENELTGDEESLEHLFDPNTRRIVNGKELVGWELISKYWKEQKKEMRVELRLRRHDIQGDKTRVRGEEILEIGEFKLILDVEITIVVINGRFTRIEIRVK | 0.185
DDKDEKSKKWAEMFIHLIETGDEERIRELLDPDVRVEIGDKEIHGRERWLEWERRMRDKYKNLRFRIEHHHIQGDKVHIRTEREIGDKSLDIRIEIIIYNGRAKEFHIDIR | 2.87
DDKDELTRTALEIFEYLEITGDWHVVSREADPHVRIVIGDKHLHGMEIFMDLTEELGVDHSSVHSLRSQGDKIDIDIELHQGEKSFRTKVTAEKVDGRWLIKRVLFR | 1.3
DDKDQHEEVEKFARNVVSGNSDELRKQMDKDVRANVGDKTLRGREEVADFWKHMRDRIDHAEIKEIRFHNGEARIVMQFVHNGRTKQINIVMEFHDGHVKRLRVEDG | 2.58
DDKEEHWHELNRIYFEWFRTGDEELIAKNADPNVRYHIDGREFHGREDFDKLMDHLSRKFKNARIEFDDMRWQGDKLHLRGTLRVGDKNIDTRIHIVIVNGQLHLIIHIRD | 1.31
DDKEETARRILDWITKLLLTGDFDTLHRMADPHMRSNYGEFEMHGMEEHSEWWHRLTLRVDHLREEIKRVTVVNGKIVADLRLRFIIGDKVEVRDITVELIVVDGRLKELRFDVK | 1.14
DDKEKHVKRISEILLHTWHTGNEESLNRMFDPEVKVYWNGRELVGRENSSKHLAEEKRRADHVEIEIKDVHVIGNKMIIDGTLRRHIGDYQDESEVHIHIEVVDGRIKRLELRIK | 1.1
DDKEQRVEELARLLYKMLLTGDWKTLEHLADPHVRMHQGEYNNVGMETVVEHWRRWYEHIRLDDMKITDLKVYGNKLHTDIRLDGEVNGKHRILESELLLIVVDGKMREIEIRII | 1.19
DDKHEINRELTRLFFETWLTGDEDWFQKMLDPHVRVEVGDKRSHGREEAARMLREHFESLGIKHLEYKSIELQGDKTIIDGRLDVDGQTRNSKIKVLIIDGRLTHLHIKLE | 1.01
DDKHELSHKFVRLIMHLIDTGDEDDIHRLLDPHAKLHVGDKRFVGREDIAHFWKKHLDDLGADYRHTRLKHIDLIGEKVIVHTEIDLTVGEYRVTIDSTFVVEKINGRWLSREFRWN | 0.88
DDKKQFLDHAINRLIRALLTGDWHILFRLLDPHVRMIQGDKEYHGRELWREIYFQDIQRVPNLTFLIKDYHIDLQGDKLRIEIEGELIIDGVNIHMEIISEHTKVNGRWSIHHLEIRHQ | 1.33
DDKQRAYEELTRKTLEVIETGDERMIEEMLDPNVRIHIDGKHVHGMEEATRIFLHEFHHLGFKHFEFKSVIEVDEKLIVTGHMRVDGREVELRIVIWKVNGRWTTESIQIHRL | 1.4
DDLDRYAEEAEKRHYENLETGDENRLQENADPHTRMDFNGRKFHGMDHNYHWMRKIREDLGVDNIRIHIHHMSVVDGVLHLDLIIRYGDKELRLHFVSEKINGRWRLKEVYYK | 0.855
DDLEEATEFYIKLYYEAVETGDERLITELADPNMRIDWNGREIHGREEFVRRLREMRVSRIEVQHVDKYGDKLHIHVRIIIEVGDKKIESSSHLISLKFNGRWLLKSMWIK | 1.39
DDLEEEAHKFLRIWLKNIITGDEDTLIELMDPRPRTIFNGVDLHGREDTSKRLSELRFNMRIDDIHVEVQGDKAIALSDVSYELIYNGRHVHLKSEIILTVRKFDGKWKAERLEIRIK | 1.67
DDLEEEAKDAVTKFIHLLLTGDWKEIREMVDPNVRIDVGDKEKHGWEDFIRDALYMHHQVDHIEVRIRHIDIFENRVVTHSVIYIEVNGQDIRLDLTLYIKKINGRWEIRQIEFK | 1.82
DDLEEEVEHFFELFWDDLLTGDEHSLTRQLDPHARFEYGDKVWHGREVYRQFMTQADHRHVEIKHTRVVNGRVEMNIEVRLHINGRRIESTVHIISTKINGQWRLESQHVE | -0.081
DDLEESLKHLLELIIQWIRTGDFHMLSQYADPDVKIHYNGREYIGREFFLQLMREMGANHFSVERIDFQGDKLHVEISFRVGDKETHTRVESWKFNGVWLLKHIEMR | 0.463
DDLEHDHKTVLELLKHLEETGDWDRLAKLADPNVRLQIGDKEWHGRRDMAKVLKRFIEEMRIQHIRFRDMKIQGDKLVFDTELDFEQGDKTVHVRTEIILVVVNGQLKSIEIRIE | 2.44
DDLEHEAHEFVRRFMEDFDTGNEKSFEDLADPNVRLDFDGKRQHGRETVSEWLYRWLYDLGIKHTTLRHVETINGRVHSTAELKVGDKHYDLHVEFKKVDGKWVFQRVYFR | 1.11

Sequence | protease stability score
DDLEHQARESLDLHTEARKTGDEDQLKNLIDPHVRIEQGDKHIHGMEMFIRHWHKLGADHSEFRLKHVRVIDGRVRIDGEMIIHINGRTISIEVHFNINKINGRWIITEIHIH | 1.09
DDLEHSSETFEKLWLESVFTGDWRSLLEMLDPHARLVINGRDFIGRELVKETLKEFLDRVPNMTLKLEDREVHIQGDKARIELHTRLEVGDKTVDTRIELIVNKIDGRWLLESQIIRIH | 1.08
DDLEKIVLRMLNLWLKSILTGDEEFEEHYADPNVRYEINGVELHGRERFSQWLTDLRRKFKNIRIEIRVHHTEAQGDKMRSEEELIIDFEGRQINREVRIDMKVIDGRIKEVKVHII | 1.42
DDLEKVSHWFNRMWTEILKTGDEKLLKDLLDPHTKLIFENRHEHGREHMISFFKKLLDEMRVHDVKIRDIEVQGDKVISDTSLDLEINGRSFEVETRLLAVKVNGRWYVHEIELR | 2.36
DDLEKWYEDIARLYHHNLLTGDEDVIHELLDPNVRLVVGDKHFHGRESVIEFLKRELTEIRIEDIKIKEVHWVGDFSINRGTLHIRINGVLFDVRSEVIFDVINGKIRRVTRIII | 1.6
DDLEQESHKVFEQYVRDWRTGDEHNVERLADPHVRVLYNGRHSHGWKEFLEHFSRDAQQADHTEFRIDDTDHQGDKMVLNETVILRYGDKEIQIEVELIYRKIDGRWYITEVRFR | 0.204
DDLEREAEEFHRLMHKSVRTGDEKLIEEMFDPNVRLDINGREMHGRHDVVELERRVDHSEWHIEDIRVVGEWADIRGELVIQVGDKEHIYKTRLIVLKIDGKWRTTEMHVR | 0.731
DDLEREAKTMVDRFRELMATGDFEEREHLVDPNTRWHVNGQDFHGRELITEILIKKFEDLGVEKITFRVERIRVVGDKIEVDGVLIIDGREIDTRLNWTKVNGRWIIKFESEK | 0.927
DDLERLVRELLDLWKRALKTGDEDVLSKMFDPDVRLTINGQVSVGREDVLRLWQEWRVDRMEERDVTVQGDKIHMDGHSHVEYDGRRIEVRHEIILVIVNGRAKSQEVRIR | 1.62
DDLETMFRRLFREWIERAETGDESRLRHLADPHYRSDQGDYDLHGREFAHEFLSRLWKELRFTIHIRHMYVYDGRVEVDGEIRVRINGRETTHKIRIEIVIVDGRIESEHIEIR | 1.26
DDLHEDTKRYLKEWIDLMYTGDEEKIFENMDPNTRIIDENHELHGREEVKDWARRMARELRHREFELTHLEVQGNFIHVRGLLIGDQGDKVIIRDVEIISIKINGRWRIESVRFE | 2.34
DDLHRNMKKVADLFIQVWLTGDFEELMHLFDPNVRLKVNGVEMHGRDDFAKFVKEHRERIDHMHFRLDELRIYGDKIVIHGTLHLHQGEKDWHHEVHIHLLVIDGVIRTVEEEER | 2.08
DDLKEDADKYSDLEREARQTGDEDFISNLMDPNVLVLINGREIHGREDVLKWLVDLRRKLGVDRFRSEVEDKHIDVQGDKIRIHGILRLNFNGQHFRIDVHIIFQKVDGRWHVREERYH | 1.41
DDMEEMAKEVFREWFEIVETGDEEKLLKLIDPNTRVDINGQEVHGREDISRITSKLIRELGVKHIRSEVKSFDIVGNKIRVRGLEIRDVGDKHKEIHTHFFIMKIDGKWVITNMHFH | 1.5
DDMEKETRQFTKLWIEALETGDEDFIKHLVDPHAKITVNGVEYHGMESMKDELKKIKNVRMEIKDVRVFNGVSKIDMESHFDGRTHDTRIEIFVVDGRFKEVRLHIR | 1.01
DDMERHARKALRVLIESLMTGDEDDIYRMLDPHVRYIFDGVDFHGRERTKETLERLSREFGLSRVHTELKDSKVYDGRLELHLEVNVDGRRRTVIVHVVKIDGKWYVEELRVQ | 1.26
DDMERHNRWFLRDLIHAIVTGDEELEERLFDPNAKVHIDGVTFIGRELVEFLRKRVDHRRMHVKRTDSQGEYLINHTELILHINGKDVRTDTVWIFHKFNGQWVVHTMEVK | 0.815
DDMHEVAKQLMEELVRNWITGNEDNVRHLLDPDVRIIIGDFIFHGRESLELLLHFYNKHIRWTDYKVHDFRIQGDYLHMDTRLIGIIDGRHVILETQMVAVKINGRWRVKSLEVR | 2.11
DDMHRELRKLAEEIEKLIETGDEDRLRTLLDPHTRVEIGDWSDMGWDAIHKMIRHIRIDSVTIRREHFFNGRVHTDIEVDGTIGDKKDIRHVELEIVIVDGRVKEIKMIYV | 2.13
DDMQEIVLRIAEELIHRETTGDEEFIKRLLDPRVRLEINGVDSIGMEEFWRFLFEEEHKLGVDHVRFDIKHIRVVDGRAHSIGILNLNINGKEHRFDVRIDIVVIDGRVREVRIEIR | 2.51
DDNEELTERFMKHLIRAQQTGDWERLKELFDPNTRLIVGEKHVVGREHFINEWLEHHNKLGIDHSQIELHNLRIINGKAHIDGHFIEEFNGKRIEIRIEVVIVKINGRWLIKEIHFI | 1.44
DDNEETVERTFKYFIDSLRTGNEEDMYEMADPNVKIEIGDKRLHGREKFRDHMHELSRRADHIQVHLRIHDIQGEFLHLDVELILDVNGKELRIKVHFVAFKFNGRWRLRSMRQT | 1.04
DDNTKHAHELVERWRHIIETGDEDIMEEMLDPNVRLLIGDKDLHGRETVEIWLRVLIRRFKNVRLESVHLESVEIQGNKAFSRVRVDLRYNGREDSMDVVVVVYKIDGRWRVHELSVH | 1.77
DDQDTNSELAVHLWILSMITGDERFLNEYMDPNAKVHVGDKEYHGREAYEFLRHRVDHIRESHIRRVHTQGNKVRVDVEFRIEVDGREINVRTELVLIKINGQWRFTEFTFK | 2.22
DDQEEFLQRLVEELLRIIETGDWRRFWELLDPNMRVDVDGREIHGMEILVTIIRELWRKLGIDHVHIRLDHVEAFNGQAHAETTVDLRYDGQIIIRESRNHFIIIDGKVEDEKYELR | 0.279
